From US11473073B2, “Aminopeptidases for protein hydrolyzates” (DUPONT NUTRITION BIOSCIENCES APS, priority 2015, dated 2022) come the findings set out here.

Type in all cases: biochemical
Test [1] has as its target T1, Aspergillus clavatus NRRL 1 PepN 2 (aminopeptidase type 2) TRI035, SEQ ID NO: 5 (mature SEQ ID NO: 22) (Aspergillus clavatus, UniProt A1CCU6).
T1 construct: MEROPS M28.008
The test can be described thus: Activity on Glu-pNA and Gln-pNA substrates. As to conditions: 20 mM CPB-Buffer pH 9.0, 45° C., 405 nm. Here is the method:
(§1) H-Glu-Nitroanilid (pNA) and H-Gln-Nitroanilid (pNA) were used as substrates and the release of p-Nitroanilid (pNA) was measured by absorbance at 405 nm. As buffer 20 mM CPB-Buffer (20 mM Citric acid, 20 mM Na-phosphate, 20 mM Boric acid) pH 9.0 was used. 10 mg H-Glu-pNA and H-Gln-pNA (from BACHEM or Schafer N; Copenhagen, Denmark) were dissolved in 1 ml of DMSO (Dimethyl Sulphoxide from SIGMA; cat # D2650).
(§2) For running the assay 80 μL buffer, 10 μL H-Glu-pNA or H-Gln-pNA substrate and 10 uL appropriately diluted PepN 2 was incubated in Costar assay plate 9017 (Corning Inc.) at 45° C. and measured at 405 nm every 30 sec for 30 min in a VERSAMAX® microplate reader (Molecular Devices) running with SoftMaxPro 5.4.1 software. Activity was determined as the maximal slope of the linear part of the curve determined over 10 time points.

For test [2], the target named is T2, Neosartorya fischeri NRRL 181 PepN 2 (aminopeptidase type 2) TRI031, SEQ ID NO: 1 (mature SEQ ID NO: 18) (Aspergillus fischeri, UniProt A1DJ89).
T2 construct: MEROPS M28.008
Briefly: Activity on Glu-pNA and Gln-pNA substrates. As to conditions: 20 mM CPB-Buffer pH 9.0, 45° C., 405 nm. Here is the method:
as §1, §2

Test [3] deals with T3, PepN 1 L. helveticus (Lactobacillus helveticus ATCC 12046), purified (Lactobacillus helveticus, UniProt Q10730).
T3 construct: made in house
T3 sequence (Q10730 1-844): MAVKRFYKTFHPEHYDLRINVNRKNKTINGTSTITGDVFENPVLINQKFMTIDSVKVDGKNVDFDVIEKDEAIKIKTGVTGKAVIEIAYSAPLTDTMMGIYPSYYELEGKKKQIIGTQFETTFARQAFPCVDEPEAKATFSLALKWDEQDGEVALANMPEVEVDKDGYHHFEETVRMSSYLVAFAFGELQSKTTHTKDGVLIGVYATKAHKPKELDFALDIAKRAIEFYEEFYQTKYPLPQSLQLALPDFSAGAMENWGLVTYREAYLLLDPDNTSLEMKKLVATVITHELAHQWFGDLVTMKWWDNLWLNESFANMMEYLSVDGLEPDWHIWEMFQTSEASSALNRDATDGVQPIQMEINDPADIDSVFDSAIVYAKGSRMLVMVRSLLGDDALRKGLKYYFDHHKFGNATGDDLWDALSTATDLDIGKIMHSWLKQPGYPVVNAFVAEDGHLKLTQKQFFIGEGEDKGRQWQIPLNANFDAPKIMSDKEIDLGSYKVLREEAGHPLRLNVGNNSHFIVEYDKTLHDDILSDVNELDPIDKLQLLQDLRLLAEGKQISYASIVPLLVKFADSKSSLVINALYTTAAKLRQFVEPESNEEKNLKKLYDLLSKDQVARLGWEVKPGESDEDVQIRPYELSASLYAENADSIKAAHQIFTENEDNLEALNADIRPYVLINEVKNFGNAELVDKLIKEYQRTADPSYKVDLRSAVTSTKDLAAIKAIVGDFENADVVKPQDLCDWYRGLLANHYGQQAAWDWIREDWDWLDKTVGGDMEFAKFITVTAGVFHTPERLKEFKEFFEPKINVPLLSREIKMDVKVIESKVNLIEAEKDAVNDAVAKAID
Briefly: Activity on Glu-pNA and Gln-pNA substrates. As to conditions: 20 mM CPB-Buffer pH 9.0, 45° C., 405 nm.

In test [4] the test system is PepN 1 A. sojae (COROLASE LAP), non-purified. The test can be described thus: Activity on Glu-pNA and Gln-pNA substrates. To be noted: 20 mM CPB-Buffer pH 9.0, 45° C., 405 nm.
Test [5] concerns peptide TPAAAR (peptide library XPAAAR). The test can be described thus: Hydrolysis of peptide with proline in position 2, LC-MS. To be noted: within 12 hr; peptide library 1 mg/mL, aminopeptidase 1 ug/mL, 55° C.; FIG. 10. Here is the method:
The peptide library XPAAAR (1 mg/mL) (SEQ ID NO:133) was incubated with 1 ug/mL of the aminopeptidase in 3×20 mM CPB-Buffer (20 mM Citric acid, 20 mM Phosphate, 20 mM Boric acid) at 55° C. 50 μL aliquots were stopped with 50 ul 5% TFA at the indicated time points and subjected to LC-MS analysis.
Capillary LC-MS/MS analyses were performed using an Agilent 1100 LC system (Agilent Technologies) interfaced to a LTQ Orbitrap Classic hybrid mass spectrometer (Thermo Scientific, Bremen, Germany). Samples were loaded onto a 15 cm Phenomenex Jupiter 4μ Proteo 90A, C4 analytical column. Separation was performed at a flow rate of 16 μL/min using a 10 min gradient of 0-40% Solvent B H2O/CH3CN/HCOOH (50/950/0.65 v/v/v) into the IONMAX® ion source (Thermo Scientific, San Jose). […] The peptide masses were measured by the Orbitrap (MS scans were obtained with a resolution of 60 000 at m/z 400), and up to 2 of the most intense peptide m/z were selected and subjected to fragmentation using CID in the linear ion trap (LTQ). […]
Label free quantification: The RAW files were accessed with the program Skyline 2.6.0.7176 (MacLean, B., et al., supra) which uses the MS1 intensities to build chromatograms (Schilling, B., et al., supra). […] Peptide sequences of the substrate as well as cleavage products were typed into Skyline and intensities were calculated in each sample. […]

Test [6] deals with whey protein isolate (WPI). The test can be described thus: Degree of hydrolysis of WPI with endopeptidases plus PepN. To be noted: 50° C., 18 hr. Here is the method: Enzyme activities of PepN 1 Lactobacillus helveticus ATCC® 12046, PepN 1 Aspergillus oryzae and from PepN 2 from Aspergillus clavatus (TRI035) were determined according to Stressler, Eisele et al. (2013, infra). PepN 1 from L. helveticus was expressed and purified as described by Stressler, Eisele et al. (2013, infra).
The PepN 1 and 2 aminopeptidases were standardized to the activity range of 2.5-200 nkat*mL^−1. For protein hydrolyses, 1% (w/wWPI) FOODPRO® Alkaline Protease (DuPont, Brabrand, Denmark) and 1% (w/wWPI) FOODPRO® PNL (DuPont, Brabrand, Denmark) were added to the whey protein isolate suspension (WPI; LACPRODAN® 9224, Arla Ingredients, Viby, Denmark) with an initial pH of 7.0. Following the endopeptidases addition, the WPI was mixed and 200 μL were transferred to each well of a 96-well microtiter plate. The hydrolysis was conducted at 50° C. without pH control and terminated after 18 hr by addition of 20 μL of 2 M TCA. Prior to the determination of the DH (Nielsen, Petersen et al., 2001, infra), all samples were filtered 0.22 μm.

T1 sequence (A1CCU6 entry or part of it): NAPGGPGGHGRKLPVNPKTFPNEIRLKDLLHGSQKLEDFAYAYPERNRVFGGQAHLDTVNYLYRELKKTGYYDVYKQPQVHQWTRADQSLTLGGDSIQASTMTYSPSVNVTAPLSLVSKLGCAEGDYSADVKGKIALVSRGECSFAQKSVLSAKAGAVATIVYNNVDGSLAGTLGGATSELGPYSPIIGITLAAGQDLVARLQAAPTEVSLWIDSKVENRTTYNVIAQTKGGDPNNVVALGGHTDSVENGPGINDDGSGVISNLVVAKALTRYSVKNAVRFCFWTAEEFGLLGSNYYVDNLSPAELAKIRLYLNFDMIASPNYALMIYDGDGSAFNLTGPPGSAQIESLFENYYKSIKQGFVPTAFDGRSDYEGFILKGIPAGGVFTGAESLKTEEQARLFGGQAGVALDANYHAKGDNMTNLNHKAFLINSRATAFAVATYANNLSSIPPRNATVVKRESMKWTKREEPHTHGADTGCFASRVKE
T2 sequence (A1DJ89 entry or part of it): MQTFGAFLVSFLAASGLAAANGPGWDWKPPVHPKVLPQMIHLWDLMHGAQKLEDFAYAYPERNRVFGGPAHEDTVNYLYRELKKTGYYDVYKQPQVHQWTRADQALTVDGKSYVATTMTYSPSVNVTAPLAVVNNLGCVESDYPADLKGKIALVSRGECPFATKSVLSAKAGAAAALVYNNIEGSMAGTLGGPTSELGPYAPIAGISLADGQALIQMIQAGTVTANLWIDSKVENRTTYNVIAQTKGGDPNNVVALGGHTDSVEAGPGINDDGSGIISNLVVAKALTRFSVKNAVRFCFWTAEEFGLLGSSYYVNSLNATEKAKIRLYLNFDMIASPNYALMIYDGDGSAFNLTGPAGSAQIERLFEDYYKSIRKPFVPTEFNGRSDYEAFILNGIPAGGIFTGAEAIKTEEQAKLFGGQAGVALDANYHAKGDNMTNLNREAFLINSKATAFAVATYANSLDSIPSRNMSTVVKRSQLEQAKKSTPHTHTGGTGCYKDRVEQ

With `NC(=O)CC[C@H](N)C(=O)Nc1ccc([N+](=O)[O-])cc1` [Gln-pNA, H-Gln-Nitroanilid], the “Vmax (Gln-pNA)” value in test [1] is 98.7 mU/min; in test [2], 75.9 mU/min; in test [3] it was 0 mU/min; in test [4] it was 0 mU/min.
As to `N[C@@H](CCC(=O)O)C(=O)Nc1ccc([N+](=O)[O-])cc1` [Glu-pNA, H-Glu-Nitroanilid], the “Vmax (Glu-pNA)” value is 20.1 mU/min in test [1], 50.8 mU/min in test [2], 0.02 mU/min in test [3] and 0 mU/min in test [4].

B1: TRI063 (A. oryzae): leucine aminopeptidase 2 from Aspergillus oryzae RIB40 (NCBI Reference Sequence: XP_001819545.1) (protein, listed as Aspergillus oryzae)
chain: MRSLLWASLLSGVLAGRALVSPDEFPEDIQLEDLLEGSQQLEDFAYAYPERNRVFGGKAHDDTVNYLYEELKKTGYYDVYKQPQVHLWSNADQTLKVGDEEIEAKTMTYSPSVEVTADVAVVKNLGCSEADYPSDVEGKVALIKRGECPFGDKSVLAAKAKAAASIVYNNVAGSMAGTLGAAQSDKGPYSAIVGISLEDGQKLIKLAEAGSVSVDLWVDSKQENRTTYNVVAQTKGGDPNNVVALGGHTDSVEAGPGINDDGSGIISNLVIAKALTQYSVKNAVRFLFWTAEEFGLLGSNYYVSHLNATELNKIRLYLNFDMIASPNYALMIYDGDGSAFNQSGPAGSAQIEKLFEDYYDSIDLPHIPTQFDGRSDYEAFILNGIPSGGLFTGAEGIMSEENASRWGGQAGVAYDANYHAAGDNMTNLNHEAFLINSKATAFAVATYANDLSSIPKRNTTSSLHRRARTMRPFGKRAPKTHAHVSGSGCWHSQVEA
On to B1, for which the “hydrolysis of TPAAAR” value in test [5] was “no hydrolysis”.

B2: PepN 1: L. helveticus: PepN 1 from Lactobacillus helveticus ATCC 12046, expressed and purified as described by Stressler, Eisele et al. (2013) (protein, UniProt Q10730 1-844, looked up)
Aminopeptidase N: T3 sequence (Q10730 1-844)
B2: the Degree of hydrolysis was determined as 18% in test [6] (PepN dosage 2.5 nkat/mL in stock solution); 18% in test [6] (PepN dosage 5 nkat/mL in stock solution); 20% in test [6] (PepN dosage 10 nkat/mL in stock solution); 23% in test [6] (PepN dosage 25 nkat/mL in stock solution); 23% in test [6] (PepN dosage 50 nkat/mL in stock solution); 24% in test [6] (PepN dosage 75 nkat/mL in stock solution). In addition, the Degree of hydrolysis in test [6] (PepN dosage 100 nkat/mL in stock solution) stood at 28%; in test [6] (PepN dosage 200 nkat/mL in stock solution), 27%.
